# Patent publication US20180155451A1 (published 2018)
# B1: GpH7-A5/GpH7-B3 variant A327_06M/GpL16-k0 (antibody, human IgG1, kappa)
# heavy 1: not shown
# heavy 2: not shown
# light: DIVMTQSPLSLPVTPGEPASISCQASESLVHSNRNTYLHWYLQKPGQSPQLLIYKVSNRFSGVPDRFSGSGSGTDFTLKISRVEAEDVGVYYCSQNTHVPPTFGQGTKVEIERTVAAPSVFIFPPSDEQLKSGTASVVCLLNNFYPREAKVQWKVDNALQSGNSQESVTEQDSKDSTYSLSSTLTLSKADYEKHKVYACEVTHQGLSSPVTKSFNRGEC
# notes: heterodimerized anti-glypican-3 IgG1; alteration in the GpH7-B3 chain only; also called He Ab
# B2: GpH7-A5/GpH7-B3 variant D270_02A/GpL16-k0 (antibody, human IgG1, kappa)
# heavy 1: not shown
# heavy 2: not shown
# light: B1 light
# notes: as for B1
# B3: GpH7-A5/GpH7-B3 variant E333_07I/GpL16-k0 (antibody, human IgG1, kappa)
# heavy 1: not shown
# heavy 2: not shown
# light: B1 light
# notes: as for B1
# B4: GpH7-A5/GpH7-B3 variant D270_12R/GpL16-k0 (antibody, human IgG1, kappa)
# heavy 1: not shown
# heavy 2: not shown
# light: B1 light
# notes: as for B1
# B5: GpH7-A5/GpH7-B3 variant A330_08L/GpL16-k0 (antibody, human IgG1, kappa)
# heavy 1: not shown
# heavy 2: not shown
# light: B1 light
# notes: as for B1
# B6: GpH7-A5/GpH7-B3 variant A330_16H/GpL16-k0 (antibody, human IgG1, kappa)
# heavy 1: not shown
# heavy 2: not shown
# light: B1 light
# notes: as for B1
# B7: GpH7-A5/GpH7-B3 variant P271_20W/GpL16-k0 (antibody, human IgG1, kappa)
# heavy 1: not shown
# heavy 2: not shown
# light: B1 light
# notes: as for B1
# B8: GpH7-A5/GpH7-B3 variant A330_09D/GpL16-k0 (antibody, human IgG1, kappa)
# heavy 1: not shown
# heavy 2: not shown
# light: B1 light
# notes: as for B1
# B9: GpH7-A5/GpH7-B3 variant D270_14T/GpL16-k0 (antibody, human IgG1, kappa)
# heavy 1: not shown
# heavy 2: not shown
# light: B1 light
# notes: as for B1
# B10: GpH7-A5/GpH7-B3 variant E333_01G/GpL16-k0 (antibody, human IgG1, kappa)
# heavy 1: not shown
# heavy 2: not shown
# light: B1 light
# notes: as for B1
# B11: GpH7-A5/GpH7-B3 variant A330_04F/GpL16-k0 (antibody, human IgG1, kappa)
# heavy 1: not shown
# heavy 2: not shown
# light: B1 light
# notes: as for B1
# B12: GpH7-A5/GpH7-B3 variant P271_03V/GpL16-k0 (antibody, human IgG1, kappa)
# heavy 1: not shown
# heavy 2: not shown
# light: B1 light
# notes: as for B1
# B13: GpH7-A5/GpH7-B3 variant A330_14T/GpL16-k0 (antibody, human IgG1, kappa)
# heavy 1: not shown
# heavy 2: not shown
# light: B1 light
# notes: as for B1
# B14: GpH7-A5/GpH7-B3 variant P271_06M/GpL16-k0 (antibody, human IgG1, kappa)
# heavy 1: not shown
# heavy 2: not shown
# light: B1 light
# notes: as for B1
# B15: GpH7-A5/GpH7-B3 variant E333_06M/GpL16-k0 (antibody, human IgG1, kappa)
# heavy 1: not shown
# heavy 2: not shown
# light: B1 light
# notes: as for B1
# B16: GpH7-A5/GpH7-B3 variant D270_06M/GpL16-k0 (antibody, human IgG1, kappa)
# heavy 1: not shown
# heavy 2: not shown
# light: B1 light
# notes: as for B1
# B17: GpH7-A5/GpH7-B3 variant A330_19Q/GpL16-k0 (antibody, human IgG1, kappa)
# heavy 1: not shown
# heavy 2: not shown
# light: B1 light
# notes: as for B1
# B18: GpH7-A5/GpH7-B3 variant D270_05P/GpL16-k0 (antibody, human IgG1, kappa)
# heavy 1: not shown
# heavy 2: not shown
# light: B1 light
# notes: as for B1
# B19: GpH7-A5/GpH7-B3 variant A330_06M/GpL16-k0 (antibody, human IgG1, kappa)
# heavy 1: not shown
# heavy 2: not shown
# light: B1 light
# notes: as for B1
# B20: GpH7-A5/GpH7-B3 variant E333_04F/GpL16-k0 (antibody, human IgG1, kappa)
# heavy 1: not shown
# heavy 2: not shown
# light: B1 light
# notes: as for B1
# B21: GpH7-A5/GpH7-B3 variant D270_18N/GpL16-k0 (antibody, human IgG1, kappa)
# heavy 1: not shown
# heavy 2: not shown
# light: B1 light
# notes: as for B1
# B22: GpH7-A5/GpH7-B3 variant D270_20W/GpL16-k0 (antibody, human IgG1, kappa)
# heavy 1: not shown
# heavy 2: not shown
# light: B1 light
# notes: as for B1
# B23: GpH7-A5/GpH7-B3 variant E333_03V/GpL16-k0 (antibody, human IgG1, kappa)
# heavy 1: not shown
# heavy 2: not shown
# light: B1 light
# notes: as for B1
# B24: GpH7-A5/GpH7-B3 variant P271_04F/GpL16-k0 (antibody, human IgG1, kappa)
# heavy 1: not shown
# heavy 2: not shown
# light: B1 light
# notes: as for B1
# Tests used:
# [1] = target: T1, FcγRIIb extracellular domain with C-terminal His tag (human, UniProt P31994 43-217); test: SPR (Biacore), antibody captured on antigen peptide chip, FcγR as analyte; relative binding
# T1 construct: extracellular domain; soluble receptor expressed in FreeStyle293 cells, used as analyte in Biacore; also called FcgRIIb; 2b; not shown: His tag attached to the C terminus
# T1 sequence (looked up): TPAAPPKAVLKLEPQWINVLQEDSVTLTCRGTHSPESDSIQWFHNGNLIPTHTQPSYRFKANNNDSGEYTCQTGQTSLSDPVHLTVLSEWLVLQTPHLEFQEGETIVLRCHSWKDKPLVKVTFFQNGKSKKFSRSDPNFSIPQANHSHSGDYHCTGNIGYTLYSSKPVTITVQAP
# [2] = target: T2, FcγRIa extracellular domain with C-terminal His tag (human, UniProt P12314 16-292); test: as above
# T2 construct: extracellular domain; soluble receptor expressed in FreeStyle293 cells, used as analyte in Biacore; also called FcgRI; 1a; not shown: His tag attached to the C terminus
# T2 sequence (P12314 16-292): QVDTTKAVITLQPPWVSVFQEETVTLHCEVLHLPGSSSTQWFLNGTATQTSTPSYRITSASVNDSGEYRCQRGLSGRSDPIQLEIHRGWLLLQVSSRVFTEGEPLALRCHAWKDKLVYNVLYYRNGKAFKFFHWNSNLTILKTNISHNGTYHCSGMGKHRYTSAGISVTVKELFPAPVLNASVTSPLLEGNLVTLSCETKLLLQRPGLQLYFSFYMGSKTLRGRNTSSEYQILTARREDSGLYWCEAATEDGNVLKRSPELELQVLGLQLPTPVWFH
Binder,He/Con_2b [1],He/Con_1a [2]
B1,59.5 % of control GpH7-A5/GpH7-B3/GpL16-k0 (=100),103 % of control GpH7-A5/GpH7-B3/GpL16-k0 (=100)
B2,48.3 % of control GpH7-A5/GpH7-B3/GpL16-k0 (=100),71.5 % of control GpH7-A5/GpH7-B3/GpL16-k0 (=100)
B3,96.2 % of control GpH7-A5/GpH7-B3/GpL16-k0 (=100),102 % of control GpH7-A5/GpH7-B3/GpL16-k0 (=100)
B4,18.3 % of control GpH7-A5/GpH7-B3/GpL16-k0 (=100),66.3 % of control GpH7-A5/GpH7-B3/GpL16-k0 (=100)
B5,70.5 % of control GpH7-A5/GpH7-B3/GpL16-k0 (=100),107 % of control GpH7-A5/GpH7-B3/GpL16-k0 (=100)
B6,87.6 % of control GpH7-A5/GpH7-B3/GpL16-k0 (=100),106 % of control GpH7-A5/GpH7-B3/GpL16-k0 (=100)
B7,58.1 % of control GpH7-A5/GpH7-B3/GpL16-k0 (=100),103 % of control GpH7-A5/GpH7-B3/GpL16-k0 (=100)
B8,55.6 % of control GpH7-A5/GpH7-B3/GpL16-k0 (=100),109 % of control GpH7-A5/GpH7-B3/GpL16-k0 (=100)
B9,57.8 % of control GpH7-A5/GpH7-B3/GpL16-k0 (=100),70.6 % of control GpH7-A5/GpH7-B3/GpL16-k0 (=100)
B10,81.4 % of control GpH7-A5/GpH7-B3/GpL16-k0 (=100),103 % of control GpH7-A5/GpH7-B3/GpL16-k0 (=100)
B11,92.8 % of control GpH7-A5/GpH7-B3/GpL16-k0 (=100),106 % of control GpH7-A5/GpH7-B3/GpL16-k0 (=100)
B12,74.8 % of control GpH7-A5/GpH7-B3/GpL16-k0 (=100),102 % of control GpH7-A5/GpH7-B3/GpL16-k0 (=100)
B13,77.9 % of control GpH7-A5/GpH7-B3/GpL16-k0 (=100),105 % of control GpH7-A5/GpH7-B3/GpL16-k0 (=100)
B14,77.5 % of control GpH7-A5/GpH7-B3/GpL16-k0 (=100),102 % of control GpH7-A5/GpH7-B3/GpL16-k0 (=100)
B15,85.4 % of control GpH7-A5/GpH7-B3/GpL16-k0 (=100),102 % of control GpH7-A5/GpH7-B3/GpL16-k0 (=100)
B16,48.2 % of control GpH7-A5/GpH7-B3/GpL16-k0 (=100),78.8 % of control GpH7-A5/GpH7-B3/GpL16-k0 (=100)
B17,90.8 % of control GpH7-A5/GpH7-B3/GpL16-k0 (=100),105 % of control GpH7-A5/GpH7-B3/GpL16-k0 (=100)
B18,13.9 % of control GpH7-A5/GpH7-B3/GpL16-k0 (=100),67.1 % of control GpH7-A5/GpH7-B3/GpL16-k0 (=100)
B19,80.5 % of control GpH7-A5/GpH7-B3/GpL16-k0 (=100),105 % of control GpH7-A5/GpH7-B3/GpL16-k0 (=100)
B20,94.6 % of control GpH7-A5/GpH7-B3/GpL16-k0 (=100),102 % of control GpH7-A5/GpH7-B3/GpL16-k0 (=100)
B21,40.3 % of control GpH7-A5/GpH7-B3/GpL16-k0 (=100),67.8 % of control GpH7-A5/GpH7-B3/GpL16-k0 (=100)
B22,34.7 % of control GpH7-A5/GpH7-B3/GpL16-k0 (=100),68 % of control GpH7-A5/GpH7-B3/GpL16-k0 (=100)
B23,93.2 % of control GpH7-A5/GpH7-B3/GpL16-k0 (=100),105 % of control GpH7-A5/GpH7-B3/GpL16-k0 (=100)
B24,59.5 % of control GpH7-A5/GpH7-B3/GpL16-k0 (=100),102 % of control GpH7-A5/GpH7-B3/GpL16-k0 (=100)
